Assay results: the supplement of paper PMC12764529
± gives the half width of the 95% confidence interval.

Assay: folding stability dG unfold from trypsin proteolysis; higher = more stable
Procedure, shortened: (§1)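 Unfolding free energy was derived, per protease or combined, by relating Bayesian-fitted K50 values from sequencing counts to a sequence-predicted unfolded-state K50 and a shared folded-state K50. The underlying digests exposed cysteine-free mini-proteins under 80 residues, in a PA-tagged cDNA display construct, to trypsin and chymotrypsin at 11 threefold-diluted concentrations and to a no-protease condition. A filter kept only designs with AlphaFold2 dimer inter-PAE above 15.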

Sequence	folding stability dG unfold [kcal/mol]
SAGGSAGGSAKETLRMELELEIDGVVVRVEAEVELDPETNELHIRVKVEVEPLPPPLPPGLESAGGSAGGSA [r18_16_TrROS_Hall]	1.2 ± 0.2
SAGGSAGGSMTVTITFAPDESLGPEKLEELLKKAGPDTTIVLSKYDPATGTTSTATIKVEPGSSAGGSAGGS [r12_913_JUSTAS]	0.697 ± 0.046
SAGGSAGGSAGGMTIPLEFEFPDGRRLRITYHIEPSEDGLKITAEVEIEPIPEPPLPSDSAGGSAGGSAGGS [r10_1200_TrMRF]	1.93 ± 0.14
SGPVPLPVEVTFEPNSETTVTLPSGRTYTVPTPPNGSATATADPATGVVTITVTSGSSTTTLTFPVPAELSA [r9_226_JUSTAS]	0.361 ± 0.006
SIMIMIPPGEEIEITIEKLKDVEVMIFNNGKVREQRVPPGEEIKFELPPGAKGFMIMIKGPNGKAQMITLSA [r9_143_TrROS]	2.74 ± 0.25
SAGMDIELVVPIESPGSPEEIEKTVEELKEKLEKLGYKVEVSREIHPVGDKLVATITIKITAPPDLPLLSAG [r5_217_JUSTAS]	3.49 ± 0.28
SAGGSAGGSPLPPEVYKIRLKVDGKWYEALARVKPDGTVEVFLKDTGKTFTVPLKDLEIEKLDSAGGSAGGS [r12_782_TrROS_Hall]	3.25 ± 0.19
SAGGGVKFELVDIESDGDGKYIAKIKVYNENGELIEEIEIEVKGLKNVTLTIPLINKPKKIEIKVTPESAGG [r13_427_TrMRF]	0.752 ± 0.03
SAGGSAGGSAGKMYKAKVKIGNKEYEAYIEENVPEDGTITVKFDDKTIEIKAENIEVYDESAGGSAGGSAGG [r11_247_TrMRF]	0.905 ± 0.031
SAGGSAGGSAGGNPLKGNFFRLKLELTLKVEVKIPKKGEKKTFPIKIELELDVPPDSILSAGGSAGGSAGGS [r10_133_TrMRF]	3.39 ± 0.26
SADNYFIRIKHKLNGKPRERTYPIDSPEEALDAIKDELQPHFPGAPIDKVKIDVFNPNNGEWQEITLKISAG [r14_54_TrROS]	-0.0876 ± 0.11
SAGTTSVVSTETTEFPDGTVTTTTTVLYLEPEGDGYVKVSETRVTTTYTIDPATGTVVTSTTTTTPLAGSAG [r5_828_JUSTAS]	1.79 ± 0.063
SAGGSAGGSRIVRNPDGWYYVRIESPEKGQERYIWIPKGNAEEIADPFGIRNVSIYRPDEPIPSAGGSAGGS [r12_294_TrROS]	0.427 ± 0.15
SMISLEKETSLPPEEARRAVERFLAELPEVERLLSVEVREDPDSYTVSLTLEGGAVSPEVLEAIERALAASA [r9_195_JUSTAS]	2.54 ± 0.053
SAGPPDWKPIAEFEYNIPMPPGETASEIENEILERIRPQGIKYVTIPVQYDPENGWIQVDVEIWVPPGASAG [r5_924_TrROS]	0.898 ± 0.03
SAGGELTEEQRKRLEEERRRREEEERRRQAAPVKVTVTVEFDPETGEVRVRVFNENGELVAEARFKVESAGG [r13_247_TrROS_Hall]	2.08 ± 0.092
SAGGSAGGSAGGKIKVPPGAIILVETESGEWKEIKPGDEIELKNSKVYIFNENGEKIELPSAGGSAGGSAGG [r7_54_TrROS_Hall]	0.82 ± 0.11
SAGGPENARPVTFTVTLPDGDVVPITVTEHPDGTVTVTVTVLRFDGAEPVPATATITVPAEVVRRLFSAGGS [r16_470_TrMRF]	2.15 ± 0.035
DLDITDPALVPVPERNYPFTVVSLTGPGNGAVTVELTLDGQTVSATVDPSTGTVTFTFPGTGASAVATADPS [r1_125_TrMRF]	1.69 ± 0.087
SAGGSAGGSAGMPVITVDVYEDDNTYTITITLSDGTPVVVTVTSPDTPVEEAVAAVIAALSAGGSAGGSAGG [r11_313_JUSTAS]	3.45 ± 0.15
SAGGGMIERYDGKIVIKLKGPNGKEWTSTTEPLPDGTARITVTHPDKVLYLEHTPEGISVVSEVSNEKSAGG [r13_619_JUSTAS]	-0.757 ± 0.33

Sequence	folding stability dG unfold [kcal/mol]
SMKIEKKDGKYVLTIKIKADSVEEVLNALKKLGIKFPPGVKEIKVVKVEEVNGEVYITIVVDTEEALKALSA [r9_820_TrROS_Hall]	2.93 ± 0.13
SAGGMVVRIKVKIKNPETGEVIEVEALVEVDEDGNVTITLPNGKKITLPKGAKVEIVDVEELPPEDLSAGGS [r16_223_TrROS_Hall]	3.72 ± 0.11
SAGGSAGGSAGGEVVVVPLPDGSYVVALPDGTVVVYNPETGRWEERRSEDVVIAPGRPDESAGGSAGGSAGG [r7_656_TrMRF]	2.09 ± 0.061
SAGGSAGGIWIPVPDGYWIKIEMPDNNGEPKATHEMDSPADVEEALEEMPPDNLTKVEIWPLPDSAGGSAGG [r6_705_TrROS]	0.875 ± 0.16
SAGGSAEPIGTLTLSFPVKVKVKDADGSIHEYDVTITVTPTVYRLPNGDLVVGLDVEIVFPDGSSLPGSAGG [r13_113_TrMRF]	3.11 ± 0.1
SAGGSAGGSAGWIDPEDIKKIQHERNPNNGRGEMRLEFENGKPVEIEFKSPEEALDWLLKSAGGSAGGSAGG [r11_339_TrROS]	-0.547 ± 0.15
SAGGSAGGSAGMKTVLSTKTEPSPEDLTVTTVTLGDKVYTIIYDPKTGKPLKVIPAGEFKSAGGSAGGSAGG [r11_851_JUSTAS]	-0.0393 ± 0.1
SAGMSPELLEALRKAAEEEGLEVVEIKVEKLPNGEVKITIRLKNGKEIKEITLPKDVKTPEEALKLIRESAG [r5_352_TrROS_Hall]	4.82 ± 0.34
SAGKPVLLKIEIEVKVNGKTVKLELEILVEPGETIEELLAALPGVEEVKIKIEPISLEELEELKKKKPSAGG [r19_339_TrROS_Hall]	0.867 ± 0.23
SAGGSAGGSAGKLVVVRAIDPENPFVVATTSDNRTYVFDSLEELLEQVPEGVPVLFLPTVSAGGSAGGSAGG [r17_295_TrMRF]	0.369 ± 0.028
SAKIKVEIVEIDEKTGTIKIKAEIELPDGTKIELEATIKIEPVEVEKKEVTDKNGKKITVTKIKIKLPEKSA [r9_610_TrROS_Hall]	2.05 ± 0.5
SAMYVYRARVEVRGPDGELLAEEEIVAESPEELKVAVLERFGLKESEIVRLEVEPVIPLEEFLELLEKGSAG [r14_852_TrMRF]	2.05 ± 0.042
SAGGSAGGSGWRPARVVRVERYRDPVNPRWYYRVEAELPDRRVTLVVPENAPVDEDGVLLIPFSAGGSAGGS [r20_49_TrMRF]	1.09 ± 0.027
SAGGSAGGSAGGMRVYEFDSEEEAQAFAEELRAAEPDVREVTIERDPETGKYRVTVVAESAGGSAGGSAGGS [r10_544_JUSTAS]	4.24 ± 0.17
SAGGSAGGSAGGHKIDIEWERYEDGMYRVTITIRSNNGPRKIPFWVPPGYETADDILKQISAGGSAGGSAGG [r7_75_TrROS]	1.8 ± 0.075
SAGMKIENAEITEIKVTVNEDGTVTVEMTVRLKNGYVVKVTMTFKNGKLEIKPEKVEVYKVKLPEEELSAGG [r19_84_TrROS_Hall]	1.68 ± 0.098
SKKVLFIEAKSEEELKAAVKALLDAGYDEIVVSSPEAAKALKELLPDVKVTLVEVKPEKKLSEEEKKKLKSA [r9_639_TrROS_Hall]	0.505 ± 0.33
SAGGSAGGSAGKIEVTYNKENNTFTVKIVNKKTKKVITIKVKAKSKEDALKKVKELLEKLSAGGSAGGSAGG [r17_386_TrROS_Hall]	2.79 ± 0.17
SAGGSAGGSAGGMEEIRELLEKAKKEGLESITVTVNDPAEATEVRAYAEEKGIPVTINASAGGSAGGSAGGS [r10_307_JUSTAS]	0.415 ± 0.048
SAGGSAFPIRIKDDNQKKIMIPFDSPEELEDLLKEPGIDKVDPEPNPDGNQPWFTIDLPNGKIELWSAGGSA [r15_632_TrROS]	-1.53 ± 0.5
SAGMTFEAEVKEKTIYIPEINNIIKIKIVNLKPPEGPIIPIIKIEFYVSENTTPEDIIKLLKELNIPVESAG [r5_486_TrMRF]	2.09 ± 0.16

Assay: folding stability dG unfold from chymotrypsin proteolysis; higher = more stable
Procedure, shortened: as §1

Sequence	folding stability dG unfold [kcal/mol]
SAGGSAGGSAKETLRMELELEIDGVVVRVEAEVELDPETNELHIRVKVEVEPLPPPLPPGLESAGGSAGGSA [r18_16_TrROS_Hall]	2.53 ± 0.34
SAGGSAGGSMTVTITFAPDESLGPEKLEELLKKAGPDTTIVLSKYDPATGTTSTATIKVEPGSSAGGSAGGS [r12_913_JUSTAS]	1.25 ± 0.013
SAGGSAGGSAGGMTIPLEFEFPDGRRLRITYHIEPSEDGLKITAEVEIEPIPEPPLPSDSAGGSAGGSAGGS [r10_1200_TrMRF]	3.64 ± 0.13
SGPVPLPVEVTFEPNSETTVTLPSGRTYTVPTPPNGSATATADPATGVVTITVTSGSSTTTLTFPVPAELSA [r9_226_JUSTAS]	0.712 ± 0.033
SIMIMIPPGEEIEITIEKLKDVEVMIFNNGKVREQRVPPGEEIKFELPPGAKGFMIMIKGPNGKAQMITLSA [r9_143_TrROS]	2.75 ± 0.081
SAGMDIELVVPIESPGSPEEIEKTVEELKEKLEKLGYKVEVSREIHPVGDKLVATITIKITAPPDLPLLSAG [r5_217_JUSTAS]	2.31 ± 0.095
SAGGSAGGSPLPPEVYKIRLKVDGKWYEALARVKPDGTVEVFLKDTGKTFTVPLKDLEIEKLDSAGGSAGGS [r12_782_TrROS_Hall]	3.51 ± 0.064
SAGGGVKFELVDIESDGDGKYIAKIKVYNENGELIEEIEIEVKGLKNVTLTIPLINKPKKIEIKVTPESAGG [r13_427_TrMRF]	1.51 ± 0.093
SAGGSAGGSAGKMYKAKVKIGNKEYEAYIEENVPEDGTITVKFDDKTIEIKAENIEVYDESAGGSAGGSAGG [r11_247_TrMRF]	1.32 ± 0.11
SAGGSAGGSAGGNPLKGNFFRLKLELTLKVEVKIPKKGEKKTFPIKIELELDVPPDSILSAGGSAGGSAGGS [r10_133_TrMRF]	3.98 ± 0.12
SADNYFIRIKHKLNGKPRERTYPIDSPEEALDAIKDELQPHFPGAPIDKVKIDVFNPNNGEWQEITLKISAG [r14_54_TrROS]	0.373 ± 0.13
SAGTTSVVSTETTEFPDGTVTTTTTVLYLEPEGDGYVKVSETRVTTTYTIDPATGTVVTSTTTTTPLAGSAG [r5_828_JUSTAS]	2.17 ± 0.063
SAGGSAGGSRIVRNPDGWYYVRIESPEKGQERYIWIPKGNAEEIADPFGIRNVSIYRPDEPIPSAGGSAGGS [r12_294_TrROS]	1.28 ± 0.34
SMISLEKETSLPPEEARRAVERFLAELPEVERLLSVEVREDPDSYTVSLTLEGGAVSPEVLEAIERALAASA [r9_195_JUSTAS]	2.71 ± 0.039
SAGPPDWKPIAEFEYNIPMPPGETASEIENEILERIRPQGIKYVTIPVQYDPENGWIQVDVEIWVPPGASAG [r5_924_TrROS]	0.849 ± 0.16
SAGGELTEEQRKRLEEERRRREEEERRRQAAPVKVTVTVEFDPETGEVRVRVFNENGELVAEARFKVESAGG [r13_247_TrROS_Hall]	3.77 ± 0.14
SAGGSAGGSAGGKIKVPPGAIILVETESGEWKEIKPGDEIELKNSKVYIFNENGEKIELPSAGGSAGGSAGG [r7_54_TrROS_Hall]	1.28 ± 0.092
SAGGPENARPVTFTVTLPDGDVVPITVTEHPDGTVTVTVTVLRFDGAEPVPATATITVPAEVVRRLFSAGGS [r16_470_TrMRF]	2.636 ± 0.023
DLDITDPALVPVPERNYPFTVVSLTGPGNGAVTVELTLDGQTVSATVDPSTGTVTFTFPGTGASAVATADPS [r1_125_TrMRF]	1.61 ± 0.08
SAGGSAGGSAGMPVITVDVYEDDNTYTITITLSDGTPVVVTVTSPDTPVEEAVAAVIAALSAGGSAGGSAGG [r11_313_JUSTAS]	2.77 ± 0.16
SAGGGMIERYDGKIVIKLKGPNGKEWTSTTEPLPDGTARITVTHPDKVLYLEHTPEGISVVSEVSNEKSAGG [r13_619_JUSTAS]	-0.426 ± 0.45
